The source of these data is paper doi:10.1101/2020.11.10.376558.

The subject of this data set is GST-N571 (CIZ1 N-terminal fragment with PLD1 and PLD2) (Mus musculus). The data set can be described thus: EMSA. On the technique in general: Mobility shift assays separate free from complexed probe on a gel.

For Xist repeat A sense, the K half was 200 nM. Xist repeat E proximal (sense) registered a K half of 100 nM.
